Source: paper PMC12719032, “Structural and biophysical insights into RomR, MglB, and MglC interactions involved in regulating cell polarity in Myxococcus xanthus” (The Journal of Biological Chemistry, 2025)

T1: MglB-MglC complex (preformed) (M. xanthus, UniProt Q1DB03 1-159; Q1D0B6 1-120)
T1 construct: MglB of Myxococcus xanthus, Uniprot ID Q1DB03; as m7; MglC of Myxococcus xanthus, Uniprot ID Q1D0B6; as m1; also called MglBC; source: purified proteins from E. coli Rosetta (DE3), MglB and MglC premixed in a 2:1 ratio; copies: 4 + 2
T1 sequence (looked up) 1: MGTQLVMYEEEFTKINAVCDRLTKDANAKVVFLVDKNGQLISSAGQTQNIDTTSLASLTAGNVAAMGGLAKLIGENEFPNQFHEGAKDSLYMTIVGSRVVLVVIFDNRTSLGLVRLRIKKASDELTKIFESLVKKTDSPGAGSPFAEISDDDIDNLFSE
T1 sequence (looked up) 2: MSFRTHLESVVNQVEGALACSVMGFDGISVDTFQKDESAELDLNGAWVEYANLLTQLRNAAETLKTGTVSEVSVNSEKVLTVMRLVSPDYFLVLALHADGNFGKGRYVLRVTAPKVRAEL

B1: RomR^371-420 (C-terminal helix of RomR, residues 371-420) (domain or fragment, M. xanthus, UniProt Q1D3Z1 371-420, looked up)
chain: DGGEALLREALSKASREVIEKIAWEVVPQLAETIIREELERLIKDRETQH
notes: synthetic gene from Invitrogen, cloned in pET-Duet-A with a TEV site; no tag cleavage is described; Trimer by SEC-SAXS; also called RomR C-terminal helix; helical domain of RomR; source: E. coli Rosetta (DE3), purified (Ni-NTA, SEC); not shown: His tag, N-terminal, kept
B2: MglC (mutual gliding-motility protein C) (natural protein, M. xanthus, UniProt Q1D0B6 1-120, looked up)
chain: T1 sequence (looked up) 2
notes: MglC of Myxococcus xanthus (DSM no. 16526, type strain), Uniprot ID Q1D0B6; Homodimer by ASEC and SEC-SAXS; source: E. coli Rosetta (DE3), purified (Ni-NTA, SEC)

What was measured:
[1] = target: T1, MglB-MglC complex (preformed); test: BLI; Octet RED 96; RomR^371-420 immobilised on AR2G sensors by EDC/NHS; MglB-MglC complex in solution; 20 mM HEPES pH 8.0, 150 mM NaCl, 10% glycerol; 2:1 (heterogeneous ligand) model and steady state analysis; conditions: both partners purified
[2] = target: T1, MglB-MglC complex (preformed); test: ITC; MglB and MglC premixed 2:1; 25 μM of the complex in the cell titrated with 300 μM RomR^371-420; one-site model; triplicate; conditions: both partners purified
[3] = target: B2; test: BLI; Octet RED 96; RomR^327-420/RomR^371-420 immobilised on AR2G sensors by EDC/NHS; MglC in solution; 20 mM HEPES pH 8.0, 150 mM NaCl, 10% glycerol; 1:1 binding model; conditions: both partners purified
[4] = target: the molecule itself; test: SEC-SAXS; BM29, ESRF; Advance BioSEC 300 column; 20 mM Hepes pH 8.0, 150 mM NaCl, 10% glycerol; Mw from Porod volume, fits of models to the scattering data
[5] = target: B2; test: ITC; MicroCal Auto-iTC200; 50 μM RomR^327-420/RomR^371-420 in the cell titrated with 500 μM MglC; 30 injections; one-site model; triplicate; conditions: both partners purified
[6] = target: RomR^327-420 (C-terminal region of RomR, residues 327-420) (M. xanthus); test: BLI; Octet RED 96; RomR^327-420/RomR^371-420 immobilised on AR2G sensors by EDC/NHS; MglC in solution; 20 mM HEPES pH 8.0, 150 mM NaCl, 10% glycerol; 1:1 binding model
[7] = target: B1; test: ITC; MicroCal Auto-iTC200; 50 μM RomR^327-420/RomR^371-420 in the cell titrated with 500 μM MglC; 30 injections; one-site model; triplicate; conditions: both partners purified
[8] = target: RomR^327-420 (C-terminal region of RomR, residues 327-420) (M. xanthus); test: as above

Row | Kd [1] | Kd [2] | dH [2] | Kd [3] | koff [3] | kon [3] | Kd [5] | Kd [6] | koff [6] | kon [6] | dH [7] | stoichiometry N [7] | Kd [8] | stoichiometry N [8] | Binder | stoichiometry N [4]
1 | 280 nM | ~150 nM | -6.07 kcal/mol | 2.8 nM | 0.000652 s⁻¹ | 228000 M⁻¹ s⁻¹ | 2.6 nM | – | – | – | – | – | – | – | B1 | 3
2 | – | – | – | – | – | – | – | 5.5 nM | 0.000805 s⁻¹ | 146000 M⁻¹ s⁻¹ | -2.59 kcal/mol | 0.65 | 4.2 nM | 0.67 | B2 | 2
